Measured values reported in publication PMC3796546.

Key:
Assay in all cases: co-IP with mass spectrometry
[1] = biological target: HHF1; details: cross-linked in vivo with formaldehyde, p value 0.08671
[2] = biological target: PFK2; details: cross-linked in vivo with formaldehyde, p value 0.14162
[3] = biological target: TY1B-BR; details: cross-linked in vivo with formaldehyde, p value 0.09425
[4] = biological target: REP1; details: cross-linked in vivo with formaldehyde, p value 0.25926
[5] = biological target: TY1B-ER1; details: cross-linked in vivo with formaldehyde, p value 0.21132
[6] = biological target: ENO1; details: cross-linked in vivo with formaldehyde, p value 0.14901
[7] = biological target: ADO1; details: cross-linked in vivo with formaldehyde, p value 0.02371
[8] = biological target: HOM2; details: cross-linked in vivo with formaldehyde, p value 0.02371
[9] = biological target: RPL13A/B; details: cross-linked in vivo with formaldehyde, p value 0.05060
[10] = biological target: SUP35; details: cross-linked in vivo with formaldehyde, p value 0.08282
[11] = biological target: ARF2; details: cross-linked in vivo with formaldehyde, p value 0.05060
[12] = biological target: RPL36A; details: cross-linked in vivo with formaldehyde, p value 0.13485

Substance: N-terminal 3xHA-tagged wild-type Irc20 (from UniProt Q06554) C1239A
- ratio to parent [1]: 2
- other: sum ([1]; parent: 4): 8
- ratio to parent [2]: 6
- other: sum ([2]; parent: 1): 6
- ratio to parent [3]: > 9
- other: sum ([3]; parent: 0): 9
- ratio to parent [4]: 2
- other: sum ([4]; parent: 2): 4
- ratio to parent [5]: > 6
- other: sum ([5]; parent: 0): 6
- ratio to parent [6]: 3.5
- other: sum ([6]; parent: 2): 7
- ratio to parent [7]: 5
- other: sum ([7]; parent: 1): 5
- ratio to parent [8]: 2
- other: sum ([8]; parent: 4): 8
- ratio to parent [9]: 2.2
- other: sum ([9]; parent: 5): 11
- ratio to parent [10]: 2.14
- other: sum ([10]; parent: 7): 15
- ratio to parent [11]: 2.5
- other: sum ([11]; parent: 2): 5
- ratio to parent [12]: > 4
- other: sum ([12]; parent: 0): 4
